Results on 1 protein are retold here after FireProtDB (doi:10.1021/bi990285w).

The conditions of this data set: Bacillus amyloliquefaciens; pH 8; 22 °C; GdnHCl; Fluorescence; phosphate 20 mM; whole UniProt chain shown.

“And” between values parts separate entries of the source, which are not always exact repeats. Equal entries are not always repeated.

B1: Barstar wild type, P11540 (protein)
chain: MKKAVINGEQIRSISDLHQTLKKELALPEYYGENLDALWDCLTGWVEYPLVLEWRQFEQSKQLTENGAESVLQVFREAKAEGCDITIILS
Turning to B1, the denaturant m value is 2.5 kcal/mol/M and 1.45 kcal/mol/M and 2.2 kcal/mol/M; the unfolding free energy is 5.1 kcal/mol and 2.1 kcal/mol and 5.6 kcal/mol.
